Results taken from US9957295B2, “Peptides inhibiting cold-inducible RNA binding protein activity” (The Feinstein Institute for Medical Research, priority 2013, dated 2018).

T1: MD2 (Homo sapiens, UniProt Q9Y6Y9)
T1 sequence (Q9Y6Y9 19-160): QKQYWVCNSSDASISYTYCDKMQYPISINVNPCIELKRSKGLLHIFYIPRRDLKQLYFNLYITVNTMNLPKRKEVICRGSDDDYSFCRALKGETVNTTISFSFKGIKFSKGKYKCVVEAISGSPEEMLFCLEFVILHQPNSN

T2: rhMD2 (Homo sapiens, UniProt Q9Y6Y9)
T2 construct: Glu17-Asn160); 10-His (C); purchased R&D Systems; host or cells: E. coli
T2 sequence (Q9Y6Y9 17-160): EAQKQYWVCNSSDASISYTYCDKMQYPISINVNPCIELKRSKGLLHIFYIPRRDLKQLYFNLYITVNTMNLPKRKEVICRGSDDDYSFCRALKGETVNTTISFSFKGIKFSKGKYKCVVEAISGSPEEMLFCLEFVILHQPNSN


Assays:
[1] = target: TLR4 (Homo sapiens, UniProt O00206); details: literature; cited from earlier work
TLR4, sequence (O00206 24-631 limits assumed, species assumed): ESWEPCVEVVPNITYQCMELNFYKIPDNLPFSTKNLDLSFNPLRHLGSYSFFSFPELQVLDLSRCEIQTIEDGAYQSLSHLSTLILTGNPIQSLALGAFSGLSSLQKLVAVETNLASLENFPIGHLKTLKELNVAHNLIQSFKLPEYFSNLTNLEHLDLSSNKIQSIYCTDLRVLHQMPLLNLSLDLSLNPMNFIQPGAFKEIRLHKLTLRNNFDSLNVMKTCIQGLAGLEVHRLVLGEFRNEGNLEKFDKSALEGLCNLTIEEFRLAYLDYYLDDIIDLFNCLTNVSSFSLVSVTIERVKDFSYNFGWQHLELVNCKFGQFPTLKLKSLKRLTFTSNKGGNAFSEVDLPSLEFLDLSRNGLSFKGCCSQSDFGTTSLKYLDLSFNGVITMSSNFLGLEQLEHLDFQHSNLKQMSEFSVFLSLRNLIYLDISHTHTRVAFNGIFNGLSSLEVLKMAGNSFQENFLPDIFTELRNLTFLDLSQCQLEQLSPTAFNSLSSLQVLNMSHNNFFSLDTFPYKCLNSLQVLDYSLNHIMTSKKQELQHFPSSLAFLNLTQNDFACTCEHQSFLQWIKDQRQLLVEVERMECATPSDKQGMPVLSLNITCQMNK

[2] = target: T1, MD2; details: literature; read-out: KD, binding to MD2; cited from earlier work
[3] = target: TLR4/MD2 complex (Homo sapiens, UniProt O00206+Q9Y6Y9); details: SPR, literature; read-out: KD, binding to TLR4/MD2 complex; cited from earlier work
TLR4/MD2 complex, sequence (O00206 24-631 limits assumed, one chain of several): as the sequence (O00206 24-631 limits assumed, species assumed) above

[4] = target: T3, TLR2 (Homo sapiens, UniProt O60603); experiment: SPR binding to TLR2
T3 construct: Glu21-Leu590); 10-His (C); purchased R&D Systems; host or cells: mouse myeloma NS0 cell line
T3 sequence (O60603 21-590): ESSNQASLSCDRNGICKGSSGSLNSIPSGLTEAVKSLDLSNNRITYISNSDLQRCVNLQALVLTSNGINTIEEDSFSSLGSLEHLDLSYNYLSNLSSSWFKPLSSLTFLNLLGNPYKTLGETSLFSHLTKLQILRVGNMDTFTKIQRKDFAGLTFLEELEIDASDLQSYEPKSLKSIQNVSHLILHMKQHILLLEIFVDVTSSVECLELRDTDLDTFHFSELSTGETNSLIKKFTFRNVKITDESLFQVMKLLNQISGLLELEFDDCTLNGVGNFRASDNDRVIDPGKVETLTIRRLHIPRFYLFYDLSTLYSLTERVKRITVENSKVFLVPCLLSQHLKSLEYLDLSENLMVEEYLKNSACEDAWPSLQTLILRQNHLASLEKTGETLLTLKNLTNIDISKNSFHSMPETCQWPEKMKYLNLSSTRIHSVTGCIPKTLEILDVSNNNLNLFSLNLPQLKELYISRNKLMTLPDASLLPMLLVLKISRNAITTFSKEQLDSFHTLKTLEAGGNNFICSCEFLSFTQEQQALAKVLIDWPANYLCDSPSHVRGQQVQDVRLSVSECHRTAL
Procedure: (§1) Analysis of protein-protein and peptide-protein interactions were conducted using the BIAcore T200 instrument (GE Healthcare). Binding reactions were performed in 1×PBS buffer containing 0.01% Tween-20 (pH 7.4). The CM5 dextran chip (flow cell-2) was first activated by injection with 89 μl of 0.1 M […] and 0.1 M N-hydroxysuccinimide. An aliquot of 200 μl of 5 μg/ml of the ligand diluted in 10 mM sodium acetate (pH 4.5) was injected into flow cell-2 of the CM5 chip for immobilization. Next, 135 μl of 1 M ethanolamine (pH 8.2) was then injected to block the remaining active sites. The flow cell-1 without coating with the ligand was used as a control to evaluate nonspecific binding. […] To evaluate the binding, the analyte (ranging from 62.5 nM to 1.0 μM for kinetics analysis or 0.5 μM for yes/no binding analysis) was injected into flow cell-1 and -2 and the association of analyte and ligand was recorded respectively by surface plasmon resonance. […] Data were analyzed by the BIAcore T200 Evaluation Software. […]
(§2) Surface plasmon resonance (SPR) analysis was utilized to determine the physical interaction and binding affinity between rhCIRP and pattern-recognition receptors and MD2. […] The region of CIRP that binds to MD2 was determined via the synthesis of 32 oligopeptides (15-mer) covering the entire human CIRP sequence. […]

[5] = target: T4, RAGE (Homo sapiens, UniProt Q15109); experiment: SPR binding to RAGE
T4 construct: Ala23-Ala344); 6-His (C); purchased Biovision; host or cells: human HEK293 cells
T4 sequence (Q15109 23-344): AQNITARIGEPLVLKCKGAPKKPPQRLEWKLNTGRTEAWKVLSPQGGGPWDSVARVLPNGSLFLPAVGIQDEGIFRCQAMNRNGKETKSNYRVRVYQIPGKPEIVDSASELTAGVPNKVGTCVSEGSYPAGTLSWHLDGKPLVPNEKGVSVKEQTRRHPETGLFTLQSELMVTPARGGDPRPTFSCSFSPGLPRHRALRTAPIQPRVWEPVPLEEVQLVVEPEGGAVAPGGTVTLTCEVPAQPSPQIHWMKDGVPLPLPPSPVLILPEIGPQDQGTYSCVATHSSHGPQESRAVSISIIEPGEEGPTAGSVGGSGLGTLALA
Procedure: as §1, §2

[6] = system: THP-1 cells; experiment: TNF-α release from differentiated THP-1 cells stimulated with recombinant proteins; type: cell-based, human; details: 4 h
Procedure: As with the murine model, the stimulation of TNF-α, release by rCIRP in a human model was studied. […] These experiments were conducted by incubating differentiated human THP-1 cells with rhCIRP or rmCIRP at the indicated concentrations for 4 h. *P<0.05 vs. no CIRP. Similarly, human PBMC were incubated with the indicated concentrations of rhCIRP for 8 h. *P<0.05 vs. no rhCIRP. Thus, stimulation of cytokine release by CIRP was not attributable to LPS contamination. Furthermore, CIRP-induced cytokine activation was conserved between rodents and humans.
rmCIRP induced TNF-α and HMGB1 release in macrophages (FIGS. 10a, b and c). It was reported that HMGB1 can also stimulate TNF-α release (Andersson, U., et al. High mobility group 1 protein (HMG-1) stimulates proinflammatory cytokine synthesis in human monocytes. J. Exp. Med. 192, 565-570 (2000)). The relationship between CIRP and HMGB1 on stimulating TNF-α release was analyzed by applying respective neutralizing antibodies. […] After 4 h, TNF-α levels in conditioned medium (CM) were assayed by ELISA. Data are mean±s.e.m. from three independent experiments. *P<0.05 vs. rmCIRP+ control IgG. In FIG. 16D, RAW 264.7 cells were pre-incubated with rabbit control IgG or anti-CIRP antibodies at indicated dilutions of 1 mg/ml for 20 min before adding 1.0 μg/ml rmCIRP. After 4 h, TNF-α levels in CM were assayed by ELISA. Data are mean±s.e.m. from three independent experiments. *P<0.05 vs. rmCIRP+ control IgG. THP-1 cells were incubated with 4 μg/ml of anti-CIRP antibodies, anti-HMGB1 antibodies, or non-immunized control IgG for 1 h prior to adding rmCIRP (0.3 μg/ml), rmHMGB1 (0.3 μg/ml), or rmCIRP/rmHMGB1 (0.3 μg/ml, 0.3 μg/ml) for 8 h. *P<0.05 vs. rmCIRP; #P<0.05 vs. rmHMGB1. […] Furthermore, rmCIRP, rmHMGB1, and rmCIRP plus rmHMGB1 induced TNF-α levels of 0.8, 0.6, and 1.6 ng/ml, respectively. […] TNF-α levels in all collected CM were assayed by ELISA. Data are mean±s.e.m. from three or four independent experiments.
Murine macrophage-like RAW 264.7 cells and human monocyte THP-1 cells were obtained from ATCC (Manassas, Va.). […]

[7] = target: T2, rhMD2; experiment: SPR binding to immobilized rhMD2; details: kinetic analysis, 25° C., read-out: apparent KD, binding to rhMD2
Procedure: Analysis of protein-protein and peptide-protein interactions were conducted using the BIAcore T200 instrument (GE Healthcare). Binding reactions were performed in 1×PBS buffer containing 0.01% Tween-20 (pH 7.4). The CM5 dextran chip (flow cell-2) was first activated by injection with 89 μl of 0.1 M […] and 0.1 M N-hydroxysuccinimide. An aliquot of 200 μl of 5 μg/ml of the ligand diluted in 10 mM sodium acetate (pH 4.5) was injected into flow cell-2 of the CM5 chip for immobilization. Next, 135 μl of 1 M ethanolamine (pH 8.2) was then injected to block the remaining active sites. The flow cell-1 without coating with the ligand was used as a control to evaluate nonspecific binding. The binding analyses were performed at flow rate of 30 μl/min at 25° C. To evaluate the binding, the analyte (ranging from 62.5 nM to 1.0 μM for kinetics analysis or 0.5 μM for yes/no binding analysis) was injected into flow cell-1 and -2 and the association of analyte and ligand was recorded respectively by surface plasmon resonance. The signal from the blank channel (flow cell-1) was subtracted from the channel (flow-cell 2) coated with the ligand. Data were analyzed by the BIAcore T200 Evaluation Software. For all samples, a blank injection with buffer alone was subtracted from the resulting reaction surface data. Data were globally fitted to the Lagmuir model for a 1:1 binding.
Surface plasmon resonance (SPR) analysis was utilized to determine the physical interaction and binding affinity between rhCIRP and pattern-recognition receptors and MD2. […] The sensorgrams show association and dissociation of analyte at the indicated concentration passed over to the immobilized ligand on the sensor chip, indicated as analyte/ligand on top of each diagram. […] The region of CIRP that binds to MD2 was determined via the synthesis of 32 oligopeptides (15-mer) covering the entire human CIRP sequence. The oligopeptides were passed over immobilized rhMD2 on the BIAcore instrument, followed by subsequent performance of a series of SPR analyses. Three oligopeptides with high binding affinity were indicated. […] Three oligopeptides, aa 101-115, 106-120 (C22), and 111-125 (C23) bound to rhMD2 with high affinity (FIG. 14 and FIG. 19).

Row | KD with TLR2 [4] | KD with RAGE [5] | Kd [7] [nM] | Molecule | binding to TLR4 (in words) [1] | Kd [2] [nM] | Kd [3] [nM] | activity in stimulating TNF-α release from differentiated THP-1 cells [6]
1 |  |  |  | HMGB1: high mobility group box 1 protein, proinflammatory cytokine; literature binding data | did not bind to TLR4 | 8 | 1500 | 
2 | in the nM range | in the nM range | 302 | rhCIRP: recombinant human CIRP, full length, C-terminal DDK tag, from HEK293 cells (Origene) (protein, left off: small tags and cut ends) MASDEGKLFVGGLSFDTNEQSLEQVFSKYGQISEVVVVKDRETQRSRGFGFVTFENIDDAKDAMMAMNGKSVDGRQIRVDQAGKSSDNRSRGYRGGSAGGRGFFRGGRGRGRGFSRGGGDRGYGGNRFESRSGGYGGSRDYYSSRSQSGGYSDRSSGGSYRDSYDSYATHNE |  |  |  | comparable activity to rmCIRP
